According to the supplement of paper PMC10065799, “High-throughput profiling of sequence recognition by tyrosine kinases and SH2 domains using bacterial peptide display” (eLife, 2023):
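Note: 11-residue human phosphosite peptides and single-mutation variants displayed on the E. coli surface, counted by deep sequencing, each peptide's frequency after selection divided by its frequency in the unselected input library; frequency after pTyr selection over input frequency; kinase dosed for 20-30% of maximal phosphorylation in three min.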

The sequences below were run against Jak2 (UniProt O60674) (assay: phosphorylation enrichment, bacterial display (enrichment ratio); higher = better substrate or ligand; peptides without Tyr show the background).
Chain of Jak2 (O60674 whole entry, looked up): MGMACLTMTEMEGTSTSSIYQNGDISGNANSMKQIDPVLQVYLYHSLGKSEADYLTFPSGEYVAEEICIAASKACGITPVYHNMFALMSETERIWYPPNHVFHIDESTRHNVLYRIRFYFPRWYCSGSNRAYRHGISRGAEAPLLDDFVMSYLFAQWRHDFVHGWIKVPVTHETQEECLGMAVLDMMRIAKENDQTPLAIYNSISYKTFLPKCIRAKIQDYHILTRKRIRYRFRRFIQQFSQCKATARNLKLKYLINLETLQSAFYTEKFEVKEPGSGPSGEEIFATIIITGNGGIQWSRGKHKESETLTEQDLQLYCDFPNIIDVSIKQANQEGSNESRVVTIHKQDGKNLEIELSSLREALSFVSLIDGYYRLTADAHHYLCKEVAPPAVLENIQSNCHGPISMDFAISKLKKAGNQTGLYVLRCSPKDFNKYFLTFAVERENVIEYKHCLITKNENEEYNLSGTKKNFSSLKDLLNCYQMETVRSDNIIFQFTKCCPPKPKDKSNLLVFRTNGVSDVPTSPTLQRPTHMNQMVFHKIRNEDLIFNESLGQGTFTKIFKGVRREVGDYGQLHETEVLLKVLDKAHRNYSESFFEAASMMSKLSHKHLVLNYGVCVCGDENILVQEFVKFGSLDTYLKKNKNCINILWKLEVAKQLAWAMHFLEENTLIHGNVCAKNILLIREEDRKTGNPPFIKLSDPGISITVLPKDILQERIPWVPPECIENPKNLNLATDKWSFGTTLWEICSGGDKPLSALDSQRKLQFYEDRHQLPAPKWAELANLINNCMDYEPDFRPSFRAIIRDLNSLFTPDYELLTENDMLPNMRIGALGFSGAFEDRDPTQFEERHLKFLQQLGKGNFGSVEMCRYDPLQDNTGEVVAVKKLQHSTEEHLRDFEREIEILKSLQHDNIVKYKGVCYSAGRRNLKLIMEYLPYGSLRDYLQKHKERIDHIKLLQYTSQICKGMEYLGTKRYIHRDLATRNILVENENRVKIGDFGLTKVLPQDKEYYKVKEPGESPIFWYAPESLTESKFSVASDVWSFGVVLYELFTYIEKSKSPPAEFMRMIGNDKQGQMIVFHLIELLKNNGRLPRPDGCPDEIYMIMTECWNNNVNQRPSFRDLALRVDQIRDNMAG
For YCRHNYGAVES [HLA-DRB1_Y112_V114A], the phosphorylation enrichment was 0.739.
In the case of LHQSTYQRFDV [SLC7A14_Y693_YF], the phosphorylation enrichment is reported as 0.652.
For LIHLHYIRKDY [BBS4_Y43], the phosphorylation enrichment was 0.857.
Sequence REAMEYLESKQ [BTK_Y511_C506R] has a phosphorylation enrichment of 1.09.
RAILNYIASKY [GSTA3_Y74] was tested, and the phosphorylation enrichment was 0.942.
Work on SVGGLYRDMGA [CBX8_Y321_G317V] yielded a phosphorylation enrichment of 0.734.
In the case of FAELMYTGFWH [ASS1_Y322_V321M], the phosphorylation enrichment is reported as 2.02.
CLLHCYFSQIH [MCM3AP_Y873_R878H] was tested, and the phosphorylation enrichment was 1.26.
TDHLRYFDSNK [ARAP1_Y359] showed a phosphorylation enrichment of 0.665.
KDDEKYLDVIR [MTM1_Y260] gave a phosphorylation enrichment of 0.987.
For IINENYDYLKG [NUP98_Y1664], the phosphorylation enrichment was 0.803.
Sequence GGGCGYNRSSG [FUS_Y232_G230C] has a phosphorylation enrichment of 0.701.
NNIDFYKKTTN [FGFR2_Y657_YF] was tested, and the phosphorylation enrichment was 0.722.
Sequence PLDGEYFTPQI [TP53_Y327_L330P] has a phosphorylation enrichment of 0.978.
AIQDAYMHITS [ADCY10_Y318] was tested, and the phosphorylation enrichment was 0.584.
TQKLAYVELQQ [CENPF_Y700_M701V] showed a phosphorylation enrichment of 0.904.
Sequence EVDELYREAPI [MYL12B_Y143] has a phosphorylation enrichment of 1.29.
RLSPEYKQNEI [GJB1_Y243] was tested, and the phosphorylation enrichment was 0.59.
ELTAKYLNYYR [P3H4_Y181_Q186R] showed a phosphorylation enrichment of 0.616.
REGAKYVSHGA [ASS1_Y113] was tested, and the phosphorylation enrichment was 0.47.
For RYVTRHIYNRE [HLA-DQB1_Y62_Y62H], the phosphorylation enrichment was 0.589.
With SFGESYDNSKS [MAN1B1_Y60_N59S] the phosphorylation enrichment was 0.939.
LLANAYIFVVQ [L1CAM_Y418_YF] was tested, and the phosphorylation enrichment was 1.79.
Sequence PDMHSYMVRFN [GRIN2D_Y732_YF] has a phosphorylation enrichment of 1.14.
KAPPTYDTVLQ [CYP3A4_Y347] gave a phosphorylation enrichment of 0.576.
HHLSTYTKMLF [CHST8_Y251_R247H] was tested, and the phosphorylation enrichment was 0.743.
Work on NMRSTYAKLAA [SEC22B_Y193_H190R] yielded a phosphorylation enrichment of 0.587.
Sequence LASLIYNFVLF [AQP6_Y231] has a phosphorylation enrichment of 1.51.
With VNCHQYDGLVG [ATP2A2_Y407_E412G] the phosphorylation enrichment was 0.736.
With AAGGRYDGLLG [HARS2_Y364_V368L] the phosphorylation enrichment was 0.645.
With YGIAQYCCRMG [LRRK2_Y2023] the phosphorylation enrichment was 0.482.
For LHQSTYQRYDV [SLC7A14_Y693], the phosphorylation enrichment was 0.545.
CPTIHYNFMCN [TP53_Y234_T230P_YF] showed a phosphorylation enrichment of 0.916.

The sequences below were run on Fer (mouse) in the same assay as above.
Work on YCRHNYGAVES [HLA-DRB1_Y112_V114A] yielded a phosphorylation enrichment of 0.514.
In the case of LHQSTYQRFDV [SLC7A14_Y693_YF], the phosphorylation enrichment is reported as 0.955.
For LIHLHYIRKDY [BBS4_Y43], the phosphorylation enrichment was 0.447.
In the case of REAMEYLESKQ [BTK_Y511_C506R], the phosphorylation enrichment is reported as 0.704.
Work on RAILNYIASKY [GSTA3_Y74] yielded a phosphorylation enrichment of 0.748.
SVGGLYRDMGA [CBX8_Y321_G317V] showed a phosphorylation enrichment of 0.446.
FAELMYTGFWH [ASS1_Y322_V321M] was tested, and the phosphorylation enrichment was 5.42.
CLLHCYFSQIH [MCM3AP_Y873_R878H] gave a phosphorylation enrichment of 0.569.
TDHLRYFDSNK [ARAP1_Y359] was tested, and the phosphorylation enrichment was 0.456.
KDDEKYLDVIR [MTM1_Y260] gave a phosphorylation enrichment of 0.405.
Work on IINENYDYLKG [NUP98_Y1664] yielded a phosphorylation enrichment of 0.401.
With GGGCGYNRSSG [FUS_Y232_G230C] the phosphorylation enrichment was 0.434.
Sequence NNIDFYKKTTN [FGFR2_Y657_YF] has a phosphorylation enrichment of 0.388.
PLDGEYFTPQI [TP53_Y327_L330P] showed a phosphorylation enrichment of 0.482.
AIQDAYMHITS [ADCY10_Y318] was tested, and the phosphorylation enrichment was 0.497.
TQKLAYVELQQ [CENPF_Y700_M701V] was tested, and the phosphorylation enrichment was 0.449.
For EVDELYREAPI [MYL12B_Y143], the phosphorylation enrichment was 0.62.
RLSPEYKQNEI [GJB1_Y243] showed a phosphorylation enrichment of 0.491.
Sequence ELTAKYLNYYR [P3H4_Y181_Q186R] has a phosphorylation enrichment of 0.392.
Work on REGAKYVSHGA [ASS1_Y113] yielded a phosphorylation enrichment of 0.566.
With RYVTRHIYNRE [HLA-DQB1_Y62_Y62H] the phosphorylation enrichment was 0.469.
SFGESYDNSKS [MAN1B1_Y60_N59S] showed a phosphorylation enrichment of 0.433.
LLANAYIFVVQ [L1CAM_Y418_YF] gave a phosphorylation enrichment of 0.793.
With PDMHSYMVRFN [GRIN2D_Y732_YF] the phosphorylation enrichment was 0.494.
Sequence KAPPTYDTVLQ [CYP3A4_Y347] has a phosphorylation enrichment of 2.09.
HHLSTYTKMLF [CHST8_Y251_R247H] was tested, and the phosphorylation enrichment was 0.504.
In the case of NMRSTYAKLAA [SEC22B_Y193_H190R], the phosphorylation enrichment is reported as 0.439.
LASLIYNFVLF [AQP6_Y231] gave a phosphorylation enrichment of 14.5.
Work on VNCHQYDGLVG [ATP2A2_Y407_E412G] yielded a phosphorylation enrichment of 0.518.
Work on AAGGRYDGLLG [HARS2_Y364_V368L] yielded a phosphorylation enrichment of 0.452.
With YGIAQYCCRMG [LRRK2_Y2023] the phosphorylation enrichment was 0.902.
LHQSTYQRYDV [SLC7A14_Y693] showed a phosphorylation enrichment of 0.392.
CPTIHYNFMCN [TP53_Y234_T230P_YF] showed a phosphorylation enrichment of 0.646.

Each sequence was assayed against Hck (UniProt P08631) in the same assay as above.
Chain of Hck (P08631 whole entry, looked up): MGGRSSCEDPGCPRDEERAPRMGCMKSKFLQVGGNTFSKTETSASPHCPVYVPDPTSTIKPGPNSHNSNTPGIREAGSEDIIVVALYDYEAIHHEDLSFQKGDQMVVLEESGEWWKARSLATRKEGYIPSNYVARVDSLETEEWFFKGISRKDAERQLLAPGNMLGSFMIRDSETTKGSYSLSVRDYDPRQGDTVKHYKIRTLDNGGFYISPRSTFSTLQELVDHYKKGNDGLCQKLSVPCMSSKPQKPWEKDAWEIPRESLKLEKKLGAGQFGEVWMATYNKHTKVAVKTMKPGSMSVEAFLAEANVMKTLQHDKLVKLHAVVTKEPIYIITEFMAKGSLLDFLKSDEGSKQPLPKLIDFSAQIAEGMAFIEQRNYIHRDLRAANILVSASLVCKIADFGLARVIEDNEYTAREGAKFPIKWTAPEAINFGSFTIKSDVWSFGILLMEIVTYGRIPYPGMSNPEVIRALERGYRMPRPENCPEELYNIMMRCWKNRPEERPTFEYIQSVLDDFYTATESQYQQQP
YCRHNYGAVES [HLA-DRB1_Y112_V114A] gave a phosphorylation enrichment of 0.549.
LHQSTYQRFDV [SLC7A14_Y693_YF] was tested, and the phosphorylation enrichment was 1.77.
For LIHLHYIRKDY [BBS4_Y43], the phosphorylation enrichment was 0.444.
Sequence REAMEYLESKQ [BTK_Y511_C506R] has a phosphorylation enrichment of 0.505.
RAILNYIASKY [GSTA3_Y74] showed a phosphorylation enrichment of 0.594.
In the case of SVGGLYRDMGA [CBX8_Y321_G317V], the phosphorylation enrichment is reported as 0.481.
For FAELMYTGFWH [ASS1_Y322_V321M], the phosphorylation enrichment was 4.7.
For CLLHCYFSQIH [MCM3AP_Y873_R878H], the phosphorylation enrichment was 0.476.
In the case of TDHLRYFDSNK [ARAP1_Y359], the phosphorylation enrichment is reported as 0.451.
For KDDEKYLDVIR [MTM1_Y260], the phosphorylation enrichment was 0.501.
Sequence IINENYDYLKG [NUP98_Y1664] has a phosphorylation enrichment of 1.07.
Sequence GGGCGYNRSSG [FUS_Y232_G230C] has a phosphorylation enrichment of 0.42.
NNIDFYKKTTN [FGFR2_Y657_YF] gave a phosphorylation enrichment of 0.435.
With PLDGEYFTPQI [TP53_Y327_L330P] the phosphorylation enrichment was 0.733.
Sequence AIQDAYMHITS [ADCY10_Y318] has a phosphorylation enrichment of 0.457.
For TQKLAYVELQQ [CENPF_Y700_M701V], the phosphorylation enrichment was 0.453.
With EVDELYREAPI [MYL12B_Y143] the phosphorylation enrichment was 0.705.
RLSPEYKQNEI [GJB1_Y243] was tested, and the phosphorylation enrichment was 0.584.
ELTAKYLNYYR [P3H4_Y181_Q186R] was tested, and the phosphorylation enrichment was 0.419.
Work on REGAKYVSHGA [ASS1_Y113] yielded a phosphorylation enrichment of 0.399.
Sequence RYVTRHIYNRE [HLA-DQB1_Y62_Y62H] has a phosphorylation enrichment of 0.662.
SFGESYDNSKS [MAN1B1_Y60_N59S] was tested, and the phosphorylation enrichment was 0.482.
For LLANAYIFVVQ [L1CAM_Y418_YF], the phosphorylation enrichment was 0.569.
PDMHSYMVRFN [GRIN2D_Y732_YF] showed a phosphorylation enrichment of 0.641.
KAPPTYDTVLQ [CYP3A4_Y347] showed a phosphorylation enrichment of 2.98.
HHLSTYTKMLF [CHST8_Y251_R247H] showed a phosphorylation enrichment of 0.814.
Sequence NMRSTYAKLAA [SEC22B_Y193_H190R] has a phosphorylation enrichment of 0.456.
For LASLIYNFVLF [AQP6_Y231], the phosphorylation enrichment was 5.89.
VNCHQYDGLVG [ATP2A2_Y407_E412G] was tested, and the phosphorylation enrichment was 0.502.
Sequence AAGGRYDGLLG [HARS2_Y364_V368L] has a phosphorylation enrichment of 0.459.
In the case of YGIAQYCCRMG [LRRK2_Y2023], the phosphorylation enrichment is reported as 1.02.
Work on LHQSTYQRYDV [SLC7A14_Y693] yielded a phosphorylation enrichment of 0.505.
CPTIHYNFMCN [TP53_Y234_T230P_YF] showed a phosphorylation enrichment of 0.655.

The sequences below were run against EPHB1 (UniProt P54762) in the same assay as above.
Chain of EPHB1 (P54762 whole entry, looked up): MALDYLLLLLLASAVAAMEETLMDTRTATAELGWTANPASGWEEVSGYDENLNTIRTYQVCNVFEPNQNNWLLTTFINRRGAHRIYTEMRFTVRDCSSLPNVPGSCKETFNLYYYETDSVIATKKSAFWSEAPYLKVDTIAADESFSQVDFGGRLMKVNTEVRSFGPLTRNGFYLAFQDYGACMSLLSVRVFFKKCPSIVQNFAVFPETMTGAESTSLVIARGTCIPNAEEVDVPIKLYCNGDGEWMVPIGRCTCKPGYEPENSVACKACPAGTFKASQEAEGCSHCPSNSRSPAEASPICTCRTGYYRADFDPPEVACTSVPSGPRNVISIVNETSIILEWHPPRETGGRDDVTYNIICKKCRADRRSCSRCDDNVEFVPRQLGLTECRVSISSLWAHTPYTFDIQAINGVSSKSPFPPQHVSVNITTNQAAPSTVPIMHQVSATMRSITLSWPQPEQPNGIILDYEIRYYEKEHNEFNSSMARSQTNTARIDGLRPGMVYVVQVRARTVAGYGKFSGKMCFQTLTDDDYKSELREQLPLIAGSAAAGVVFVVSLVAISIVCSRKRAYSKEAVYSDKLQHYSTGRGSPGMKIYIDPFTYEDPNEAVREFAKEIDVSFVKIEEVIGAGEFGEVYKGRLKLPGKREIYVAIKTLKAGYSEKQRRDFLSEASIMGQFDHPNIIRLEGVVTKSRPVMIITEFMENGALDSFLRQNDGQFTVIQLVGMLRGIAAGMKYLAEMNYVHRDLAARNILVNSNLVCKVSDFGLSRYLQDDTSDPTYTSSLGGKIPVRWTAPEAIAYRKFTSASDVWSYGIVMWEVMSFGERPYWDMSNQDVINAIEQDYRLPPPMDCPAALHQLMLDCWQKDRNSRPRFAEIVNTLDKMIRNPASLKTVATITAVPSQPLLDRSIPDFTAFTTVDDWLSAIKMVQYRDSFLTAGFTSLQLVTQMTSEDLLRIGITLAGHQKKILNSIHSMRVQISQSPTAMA
YCRHNYGAVES [HLA-DRB1_Y112_V114A] was tested, and the phosphorylation enrichment was 0.566.
LHQSTYQRFDV [SLC7A14_Y693_YF] was tested, and the phosphorylation enrichment was 1.45.
Sequence LIHLHYIRKDY [BBS4_Y43] has a phosphorylation enrichment of 0.602.
Work on REAMEYLESKQ [BTK_Y511_C506R] yielded a phosphorylation enrichment of 0.657.
For RAILNYIASKY [GSTA3_Y74], the phosphorylation enrichment was 0.665.
SVGGLYRDMGA [CBX8_Y321_G317V] gave a phosphorylation enrichment of 0.567.
Sequence FAELMYTGFWH [ASS1_Y322_V321M] has a phosphorylation enrichment of 3.52.
Sequence CLLHCYFSQIH [MCM3AP_Y873_R878H] has a phosphorylation enrichment of 0.626.
TDHLRYFDSNK [ARAP1_Y359] was tested, and the phosphorylation enrichment was 0.611.
KDDEKYLDVIR [MTM1_Y260] showed a phosphorylation enrichment of 0.461.
Sequence IINENYDYLKG [NUP98_Y1664] has a phosphorylation enrichment of 0.657.
GGGCGYNRSSG [FUS_Y232_G230C] gave a phosphorylation enrichment of 0.392.
NNIDFYKKTTN [FGFR2_Y657_YF] was tested, and the phosphorylation enrichment was 0.639.
In the case of PLDGEYFTPQI [TP53_Y327_L330P], the phosphorylation enrichment is reported as 1.53.
In the case of AIQDAYMHITS [ADCY10_Y318], the phosphorylation enrichment is reported as 0.469.
With TQKLAYVELQQ [CENPF_Y700_M701V] the phosphorylation enrichment was 0.507.
Work on EVDELYREAPI [MYL12B_Y143] yielded a phosphorylation enrichment of 0.784.
In the case of RLSPEYKQNEI [GJB1_Y243], the phosphorylation enrichment is reported as 0.468.
ELTAKYLNYYR [P3H4_Y181_Q186R] showed a phosphorylation enrichment of 0.606.
Work on REGAKYVSHGA [ASS1_Y113] yielded a phosphorylation enrichment of 0.553.
RYVTRHIYNRE [HLA-DQB1_Y62_Y62H] showed a phosphorylation enrichment of 0.525.
In the case of SFGESYDNSKS [MAN1B1_Y60_N59S], the phosphorylation enrichment is reported as 0.474.
Sequence LLANAYIFVVQ [L1CAM_Y418_YF] has a phosphorylation enrichment of 0.757.
In the case of PDMHSYMVRFN [GRIN2D_Y732_YF], the phosphorylation enrichment is reported as 0.488.
Sequence KAPPTYDTVLQ [CYP3A4_Y347] has a phosphorylation enrichment of 6.72.
HHLSTYTKMLF [CHST8_Y251_R247H] gave a phosphorylation enrichment of 0.956.
NMRSTYAKLAA [SEC22B_Y193_H190R] gave a phosphorylation enrichment of 0.373.
In the case of LASLIYNFVLF [AQP6_Y231], the phosphorylation enrichment is reported as 1.93.
Work on VNCHQYDGLVG [ATP2A2_Y407_E412G] yielded a phosphorylation enrichment of 0.433.
AAGGRYDGLLG [HARS2_Y364_V368L] was tested, and the phosphorylation enrichment was 0.471.
With YGIAQYCCRMG [LRRK2_Y2023] the phosphorylation enrichment was 1.
For LHQSTYQRYDV [SLC7A14_Y693], the phosphorylation enrichment was 0.293.
CPTIHYNFMCN [TP53_Y234_T230P_YF] showed a phosphorylation enrichment of 0.576.
